Patent US20140271478A1 (University of California, published 2014)
Changes are numbered by the printed parent chain.

T1: mouse integrin β8 (mouse, UniProt Q0VBD0 22-767)
T1 construct: whole, on cells; also called mouse β8; itgb8
T1 sequence (looked up): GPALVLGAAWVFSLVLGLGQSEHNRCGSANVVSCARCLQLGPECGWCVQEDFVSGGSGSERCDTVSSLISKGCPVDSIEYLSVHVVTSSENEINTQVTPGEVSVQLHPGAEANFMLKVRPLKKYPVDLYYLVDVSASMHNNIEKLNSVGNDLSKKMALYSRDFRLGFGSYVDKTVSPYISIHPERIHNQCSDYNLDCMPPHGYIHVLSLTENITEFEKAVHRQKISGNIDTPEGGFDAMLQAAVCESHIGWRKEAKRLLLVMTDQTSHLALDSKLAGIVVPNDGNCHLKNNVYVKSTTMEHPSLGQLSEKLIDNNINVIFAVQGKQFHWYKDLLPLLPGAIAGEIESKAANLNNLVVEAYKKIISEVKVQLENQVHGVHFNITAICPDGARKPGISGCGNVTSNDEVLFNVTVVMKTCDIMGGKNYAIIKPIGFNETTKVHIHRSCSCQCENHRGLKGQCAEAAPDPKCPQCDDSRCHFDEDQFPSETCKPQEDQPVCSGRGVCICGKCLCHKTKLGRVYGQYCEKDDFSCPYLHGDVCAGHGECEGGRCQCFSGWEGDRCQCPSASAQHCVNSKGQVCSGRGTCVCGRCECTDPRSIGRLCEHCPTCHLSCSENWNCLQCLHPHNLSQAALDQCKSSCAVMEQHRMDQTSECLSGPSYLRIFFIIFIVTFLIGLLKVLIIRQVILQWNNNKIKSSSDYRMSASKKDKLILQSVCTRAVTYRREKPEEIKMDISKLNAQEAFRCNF

T2: human integrin β8 swap construct V R I N S (SEQ ID NO:124) (human, UniProt P26012 43-769)
T2 sequence: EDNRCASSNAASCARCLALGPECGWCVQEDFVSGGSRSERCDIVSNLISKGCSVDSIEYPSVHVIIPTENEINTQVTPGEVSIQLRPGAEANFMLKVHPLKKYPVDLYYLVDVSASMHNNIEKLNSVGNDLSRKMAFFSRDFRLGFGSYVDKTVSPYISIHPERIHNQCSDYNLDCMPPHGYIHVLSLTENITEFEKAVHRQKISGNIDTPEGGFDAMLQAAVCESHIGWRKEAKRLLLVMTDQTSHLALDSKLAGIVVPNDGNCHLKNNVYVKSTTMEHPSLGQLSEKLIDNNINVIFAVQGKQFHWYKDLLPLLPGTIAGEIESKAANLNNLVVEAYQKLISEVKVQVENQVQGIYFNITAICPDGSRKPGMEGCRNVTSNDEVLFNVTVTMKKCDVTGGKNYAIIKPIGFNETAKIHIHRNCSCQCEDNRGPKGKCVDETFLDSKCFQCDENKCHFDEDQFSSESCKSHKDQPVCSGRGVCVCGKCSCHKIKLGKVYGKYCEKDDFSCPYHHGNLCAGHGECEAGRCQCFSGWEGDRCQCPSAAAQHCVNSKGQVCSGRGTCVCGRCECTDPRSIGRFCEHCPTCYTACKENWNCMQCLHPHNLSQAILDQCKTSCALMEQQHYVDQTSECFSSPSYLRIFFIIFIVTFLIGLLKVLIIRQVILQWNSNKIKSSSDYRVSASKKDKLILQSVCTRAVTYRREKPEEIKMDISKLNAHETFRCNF

T3: human integrin β8 swap construct I G I N S (SEQ ID NO:126) (human, UniProt P26012 43-769)
T3 sequence: T2 sequence with V32I, R37G

T4: human integrin β8 swap construct I G I N P (SEQ ID NO:125) (human, UniProt P26012 43-769)
T4 sequence: T2 sequence with V32I, R37G, S53P

B1: 4F1 antibody (antibody, V domains shown)
VH: QVQLQQSGAELVRPGTSVKVSCKASGYAFTNYLIEWVKQRPGQGLEWIGVINPGTGGTNYNKKFKVKATLTADKSSSTAYMQLGGLTFDDSAVYFCAREGNARTYYYAMDYWGQGTSVTVSS
VL: DIEMTQTPASLSASVGETVTITCRASENIYSYLVWYQQKQGKSPQVLVYNAKTLAEGVPSRFSGSGSGTQFSLKINSLQPEDFGSYYCQHHNGTPYTFGGGTKLEIKR
notes: Hybridoma antibody; also called hybridoma clone 4F1
B2: 6B9 antibody (antibody, V domains shown)
VH: QVQLQQSGAELVRPGTSVKVSCKASGYAFTDYLIEWVKQRPGQGLEWIGVINPETGGTNYNAKFKGKATLTADKSSSSAYMQLSSLTSGDSAVYFCAREAGNYIYAMDYWGQGTSVTVSS
VL: B1 VL with E3Q, T7S, E27V, V46L, Y49H, N92H
notes: Hybridoma antibody; also called hybridoma clone 6B9

How the values were obtained:
mouse integrin β8 [1] = biological target: T1, mouse integrin β8; experiment: flow cytometry, cell surface staining of β8 amino acid swap constructs
[2] = biological target: T2, human integrin β8 swap construct V R I …; experiment: as above
[3] = biological target: T3, human integrin β8 swap construct I G I …; experiment: as above
[4] = biological target: T4, human integrin β8 swap construct I G I …; experiment: as above
[5] = biological target: T5, human integrin αβ8 (αvβ8) expressed on cells (human, UniProt P06756 31-1048); experiment: as above
T5 construct: whole, on cells; β8 transfected into or endogenous on cells, unfixed or formalin fixed; also called human integrin β8; ITGB8
T5 sequence (P06756 31-1048): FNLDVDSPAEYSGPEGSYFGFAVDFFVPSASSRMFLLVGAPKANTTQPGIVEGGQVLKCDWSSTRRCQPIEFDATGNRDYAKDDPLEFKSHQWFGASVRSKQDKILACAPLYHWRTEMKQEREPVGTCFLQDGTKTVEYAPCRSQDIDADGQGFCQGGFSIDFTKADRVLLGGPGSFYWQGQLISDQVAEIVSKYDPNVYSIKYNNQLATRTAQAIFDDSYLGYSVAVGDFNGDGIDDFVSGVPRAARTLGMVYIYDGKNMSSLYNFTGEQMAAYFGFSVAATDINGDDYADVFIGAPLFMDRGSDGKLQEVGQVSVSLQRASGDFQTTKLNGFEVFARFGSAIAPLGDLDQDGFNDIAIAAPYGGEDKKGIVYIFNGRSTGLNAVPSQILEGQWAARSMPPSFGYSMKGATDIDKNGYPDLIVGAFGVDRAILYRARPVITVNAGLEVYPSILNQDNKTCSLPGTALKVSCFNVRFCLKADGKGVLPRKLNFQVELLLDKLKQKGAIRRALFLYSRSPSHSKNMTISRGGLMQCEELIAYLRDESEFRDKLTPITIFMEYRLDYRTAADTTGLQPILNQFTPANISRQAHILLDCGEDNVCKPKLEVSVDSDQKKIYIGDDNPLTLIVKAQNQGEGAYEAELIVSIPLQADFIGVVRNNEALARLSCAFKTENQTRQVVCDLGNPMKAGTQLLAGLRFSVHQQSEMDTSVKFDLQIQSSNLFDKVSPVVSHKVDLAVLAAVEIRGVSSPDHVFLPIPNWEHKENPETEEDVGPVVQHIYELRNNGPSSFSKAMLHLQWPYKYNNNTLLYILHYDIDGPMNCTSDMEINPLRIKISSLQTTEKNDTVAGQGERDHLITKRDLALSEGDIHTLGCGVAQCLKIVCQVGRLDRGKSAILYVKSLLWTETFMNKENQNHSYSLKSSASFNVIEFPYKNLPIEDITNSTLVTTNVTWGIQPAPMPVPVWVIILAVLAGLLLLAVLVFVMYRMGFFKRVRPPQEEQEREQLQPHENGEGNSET

mouse integrin β8 [6] = biological target: T1, mouse integrin β8; experiment: cell surface staining, flow cytometry

% positive (mouse integrin β8 [1]) [%]	% positive [2] [%]	% positive [3] [%]	% positive [4] [%]	% positive [5] [%]	binding result (mouse integrin β8 [6])	Binder
3	92	101	0	100	no binding	B1
6	102	104	1	100	no binding	B2
